The test concerns the target T1, recombinant PDGF domain of CgVEGF with a GST tag (rCgVEGF) (Crassostrea gigas, biotin (biotinylated; site not stated)).
T1 chain: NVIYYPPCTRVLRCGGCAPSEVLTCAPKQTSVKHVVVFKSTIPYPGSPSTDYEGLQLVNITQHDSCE
The test can be described thus: BLI; Octet K2 (ForteBio); biotinylated rCgVEGF immobilised on streptavidin biosensors; rCgVEGFR in solution at 1150, 1125, 843.75, 632.81 and 474.61 ug/mL; global fit to a 1:1 binding model; rTrx as control analyte. Particulars: both partners purified.

B1: recombinant extracellular domain of CgVEGFR with a Trx tag (rCgVEGFR) (domain or fragment)
chain: QLVVVEETDCLKRPCRNGGSCDDIDGDGNFTCGCLPQWSGHFCELDTNECLNPPCEHGGTCTNSHGGYFCACTEIWTGKNCEEFKRVTIVDPKPTMEIYPERERVDSENGSIYTSSGDIVLNSGENFTIECFGDYPIKLTFKSDRVAEAPDYLGMDIIRRPIANMSQNARAFGVIYLVSNPTYKYTGEYVCQYTENSLHTSKYIYIRDEDNLFLEKNKYPGVPIFKNSYLFEPLILPCHVSDPEADVKLLTNWGTEVQLPDSPITYDPKTGFLIEFPSYSFVGPFRCAASVNNGMMQTISYYVTFNVEYKPSPTLLPLGDLEIVLGEDFELRCQVTVPLSVQSVSIQWMYSSNENNVSLPISALMIAPGQRSDRVRFTRPVEDTSMASDKSKTYFSNLTVMNGMKMDQGRYTCNVTTGRSQSTAVSKNVILVGDGLLEIQQCKKGQEIADFRGNWTVITQEQQIGVQISCLIKSMPYPKVTWYFKGEELNFKNSTVSQRYNPTMLNTTRTLTNISLSIMLPGKEQVGLYEIIVEAGTKREYAHFQLVYQYKPVVLIPAINKDVPYLLPNTRYNVRALVSAVPPATSQGWLWQPCGELPSCKQNSNSWRNVTSDNYQRFNQSGHLKYYATNSKGTGEYVMKIKVAEYETGLGIHIDQEKPSIIQTFPLHVTCTATKWEYSNVKVVFWGETDSYWRDVNIQNGTTLLSHNTSLSWISELRIENFAPENVGLYGCEVDISSNSSKGHLSTGDALRVQMISLEKPVFTKNTLTDSVVETNMGHSYHVMDCSARGVPAPSIQWFKDGQLLNFTSEFLGLSLSDDNTSLTINKTDVVHSGIYVCEVENMNGVIYKNVTLQIKSSLQSQKLKTKVEKGT
As to B1, the Kd turned out to be 879 nM.

The values are drawn from PMC12468279, “VEGF-VEGFR Signaling Mechanism Directs the Migration of Newborn Hemocytes from the Hematopoietic Site of Oyster Crassostrea gigas” (Cells, 2025).
